Molecular target: LhrD1536A (Escherichia coli MG1655, UniProt P30015 1-1538, D1536A)
Experiment: EMSA; 5 mM EDTA; 12.5-200 nM protein, 12.5 nM DNA; similar to Lhr; 20 mM Tris pH 7.5, 10% glycerol, 100 ug/mL BSA, 25 mM DTT, 5 mM EDTA, 12.5 nM Cy5-DNA; 37 C 20 min then ice 10 min; 5% acrylamide TBE gel
Conditions: protein: recombinant; tags: His6; label: 5' Cy5; single strand

TCGGATCCTCTAGACAGCTCCATGATCACTGGCACTGGTAGAATTCGGC (ssDNA) [Cy5-ssDNA (EMSA)]
binding result: binds
